Key:
[1] = target: cathepsin L from human (human)
[2] = target: papain from Carica papaya (Carica papaya) (UniProt P00784)
[3] = target: cathepsin B from human (human)

Chain of papain from Carica papaya (Carica papaya) (P00784 134-345): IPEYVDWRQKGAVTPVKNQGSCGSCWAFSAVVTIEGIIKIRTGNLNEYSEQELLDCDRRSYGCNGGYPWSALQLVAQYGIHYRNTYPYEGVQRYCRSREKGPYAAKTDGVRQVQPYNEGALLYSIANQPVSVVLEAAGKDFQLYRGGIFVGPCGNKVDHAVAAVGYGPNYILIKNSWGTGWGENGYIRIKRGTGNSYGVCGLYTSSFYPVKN

Substance “TK-cystatin (secretory cystatin from Thelohanellus kitauei) (natural protein)” has an IC50 of inhibition of cathepsin L activity (0.026 μmol/L cathepsin L, fluorogenic substrate Z-Phe-Arg-AMC, pH 5.5, increasing TK-cystatin) [1] of 0.175 μmol/L, an IC50 of inhibition of papain activity (0.15 μmol/L papain, fluorogenic substrate Z-Phe-Arg-AMC, pH 5.5, increasing TK-cystatin) [2] of 0.8 μmol/L and an IC50 of inhibition of cathepsin B activity (0.026 μmol/L cathepsin B, fluorogenic substrate Z-Arg-Arg-AMC, pH 5.5, increasing TK-cystatin) [3] of 2.1 μmol/L.
